Test results: paper PMC3541965

What was measured:
[1] = biological target: RNC bearing the nascent chain of FtsQ (UniProt P06136); test: fluorescence polarisation
[2] = biological target: RNC bearing the nascent chain of firefly luciferase (firefly) [luciferase: P08659]; test: fluorescence polarisation
[3] = biological target: Cm-labeled RNC bearing the engineered signal sequence 1A9L; test: FRET or BRET
[4] = biological target: SRP(∆FL), SRP(C235) labeled with DACM or acrylodan (E. coli) (UniProt P0AGD7); test: time course of acrylodan fluorescence

Sequence of RNC bearing the nascent chain of FtsQ (P06136 whole entry, looked up): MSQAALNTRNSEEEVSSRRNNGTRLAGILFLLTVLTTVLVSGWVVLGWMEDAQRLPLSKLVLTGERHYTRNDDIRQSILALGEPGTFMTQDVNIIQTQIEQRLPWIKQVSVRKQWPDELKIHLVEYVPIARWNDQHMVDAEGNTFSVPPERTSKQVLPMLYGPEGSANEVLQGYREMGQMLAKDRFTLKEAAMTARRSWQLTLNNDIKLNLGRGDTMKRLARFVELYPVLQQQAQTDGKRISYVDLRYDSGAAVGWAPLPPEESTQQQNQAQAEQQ
Sequence of RNC bearing the nascent chain of firefly luciferase (firefly) [luciferase: P08659] (P08659 whole entry, looked up): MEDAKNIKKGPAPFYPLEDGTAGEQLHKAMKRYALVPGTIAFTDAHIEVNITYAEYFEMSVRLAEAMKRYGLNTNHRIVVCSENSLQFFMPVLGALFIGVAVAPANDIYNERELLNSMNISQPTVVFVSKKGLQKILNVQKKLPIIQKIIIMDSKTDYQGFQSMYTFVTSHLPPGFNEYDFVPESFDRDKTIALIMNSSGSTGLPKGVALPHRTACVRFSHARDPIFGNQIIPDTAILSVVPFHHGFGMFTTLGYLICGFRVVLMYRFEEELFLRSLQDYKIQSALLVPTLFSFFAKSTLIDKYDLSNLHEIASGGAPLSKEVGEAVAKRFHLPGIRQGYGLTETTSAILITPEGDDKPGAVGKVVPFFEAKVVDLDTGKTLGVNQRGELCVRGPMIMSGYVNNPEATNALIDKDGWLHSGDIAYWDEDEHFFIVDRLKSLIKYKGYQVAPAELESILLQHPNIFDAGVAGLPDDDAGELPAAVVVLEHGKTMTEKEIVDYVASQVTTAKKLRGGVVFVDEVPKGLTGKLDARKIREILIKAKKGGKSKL

Substance | fold weaker Kd (koff/kon) against wild-type SRP [3] [fold] | fold change of Kd against wild-type SRP [1] [fold] | other results
wild-type SRP with fluorescein-labeled Ffh(C421) (from UniProt P0AGD7 1-453) (complex) | – | – | Kd [1]: 1.7 nM; Kd [2]: 128 nM
FtsY (from UniProt P10121 1-497) (receptor) | – | – | fold slower dissociation rate constant against wild-type SRP [4]: 80 fold
SRP(LM→AA) with fluorescein-labeled Ffh(C421) (from UniProt P0AGD7 1-453) (complex) | – | < 3 | –
SRP(∆FL) with fluorescein-labeled Ffh(C421) (from UniProt P0AGD7 1-453) (complex) | – | < 3 | –

The next lines start with results.

fold weaker Kd (koff/kon) against wild-type SRP [3] [fold] | fold change of Kd against wild-type SRP [1] [fold] | Substance | other results
6 | – | SRP(LM→AA) with BODIPY-FL labeled at residue 421 of Ffh (from UniProt P0AGD7 1-453) (complex) | –
2 | – | SRP(∆FL) with BODIPY-FL labeled at residue 421 of Ffh (from UniProt P0AGD7 1-453) (complex) | –
